Laboratory results taken from paper PMC11192315 (PLOS Pathogens, 2024).

Columns and labels:
[1] = target: T1, SARS-CoV-2 RBD, wild type (Wuhan-Hu-1) (SARS-CoV-2, UniProt P0DTC2); test: ELISA; settings: both partners purified
[2] = target: RBD domain (333-530) of SARS-CoV-2 WT Spike (SARS-CoV-2, UniProt P0DTC2); test: crystal structure; settings: both partners purified
[3] = target: T1, SARS-CoV-2 RBD, wild type (Wuhan-Hu-1); test: cell-based or functional assay

Binder	binding result [1]	also measured
C121 (Class 2 human mAb) (antibody, V domains shown) VH: not shown VL: QSALTQPASVSGSPGQSITISCTGTSSDVGSYNLVSWYQQHPGKAPKLMIYEGSKRPSGVSNRFSGSKSGNTASLTISGLQAEDEADYYCCSYAGSSTLVFGGGTKLTVL	binds	–
JL-8C (human IgG mAb) (antibody, V domains shown) VH: QVQLVQSGAEVKKPGESLKISCKGSGYSFTSHWIGWVRQKPGKGLEWVGIIHPYDSDTRYSPSFQGLVTFSADKSSSTAYLQWSSLQASDTAIYYCARRTDQYGSHGMDVWGQGTTVTVSS VL: QSVLTQPPSASGTPGQRVTISCSGGSSNIGGNPVNWYQQLPATAPKLLIYNNNQRPSGVSDRFSGSKSGTSASLAISGLQSVDEADYFCAAWDDSLNGVLFGGGTKLTVL	binds	–
JM-1A Fab (Fab, V domains shown) VH: QVQLQQSGPGLVKPSGTLSLTCAVSGASISSGDWWSWVRQSPGRGLEWIGGIFHSGTTNYSPSLKSRVTMSVDQPKNQFSLHLTSVTAADTAVYYCARMRGIFDYWGQGTLVTVSS VL: DIQLTQSPSSLSVSVGDRVTITCRASQAISNSLAWYQQKPGKAPKLLLYAASTLESGVPSRFSGSGSGTDFTLTISSLQPEDFATYYCQHYYSTPFFGGGTKVEIK	–	binding result [2]: binds
JM-1A (human IgG mAb) (antibody, V domains shown) VH: QVQLQQSGPGLVKPSGTLSLTCAVSGASISSGDWWSWVRQSPGRGLEWIGGIFHSGTTNYSPSLKSRVTMSVDQPKNQFSLHLTSVTAADTAVYYCARMRGIFDYWGQGTLVTVSS VL: DIQLTQSPSSLSVSVGDRVTITCRASQAISNSLAWYQQKPGKAPKLLLYAASTLESGVPSRFSGSGSGTDFTLTISSLQPEDFATYYCQHYYSTPFFGGGTKVEIK	binds	–
JH-8B (human IgG mAb) (antibody, V domains shown) VH: EVQLVESGGGLIQPGGSLRLSCAASGVTVSSNYMSWVRQAPGKGLEWISLIYSGGSTYYADSVKGRFTISRDNSKNTLYLQMNSLRAEDTAVYYCARELDIVGATDIWGQGTMVTVSS VL: not shown	–	IC50, neutralisation of pseudotyped lentivirus with WT spike [3]: 9 ng/mL
FI-3A (Class 1 human mAb) (antibody, V domains shown) VH: EVQLLESGGGLIQPGGSLRLSCAASGFTVSSNYMSWVRQAPGKGLEWVSVIYSGGSTYYADSVKGRFTISRDNSKNTLYLQMNSLRAEDTAVYYCARDHVRPGMNIWGQGTMVTVSS VL: not shown	binds	–
JE-5C (human IgG mAb) (antibody, V domains shown) VH: EVQLLESGGGLVQPGGSLRLSCAASGVTVTSNYMSWVRQAPGKGLEWVSVIYSGGSTYYADSVKGRFTISRHNSKNTLYLQMNSLRAEDTAVYYCARDLREAGGMDVWGQGTTVTVSS VL: DIVMTQSPSSLSASVGDRVTITCQASQDINNYLNWYQQKPGKAPKLLIYDASNLETGVPSRFSGSGSGTDFTFTISSLQPEDIATYYCQQFDNLPWTFGQGTKVEIR	binds	–
JE-5C Fab (Fab, V domains shown) VH: EVQLLESGGGLVQPGGSLRLSCAASGVTVTSNYMSWVRQAPGKGLEWVSVIYSGGSTYYADSVKGRFTISRHNSKNTLYLQMNSLRAEDTAVYYCARDLREAGGMDVWGQGTTVTVSS VL: DIVMTQSPSSLSASVGDRVTITCQASQDINNYLNWYQQKPGKAPKLLIYDASNLETGVPSRFSGSGSGTDFTFTISSLQPEDIATYYCQQFDNLPWTFGQGTKVEIR	–	binding result [2]: binds
IY-2A (Class 4 human mAb) (antibody, V domains shown) VH: QVQLVEWGAGLLKPSETLSLTCAVYGGSFSGYYWSWIRQPPGKGLEWIGLINHSGSTNYNPSLKSRVTISLDTSKNQFSLKLTSVTAADTAVYYCARGLGIFGVVTLSDVWGQGTTVTVSS VL: NFMLTQPHSVSESPGKTVTISCTGSSGSIASNYVQWYQQRPGSAPTTVIYEDNQRPSGVPDRFSGSIDSSSNSASLTISGLRTEDEADYYCQSYDSGIWVFGGGTKLTVL	binds	–
FD-11A (Class 3 human mAb) (antibody, V domains shown) VH: EVQLVESGGGVVQPGRSLRLSCAASGFTFSSYGMHWVRQAPGKGLEWVAVIWYDGSNKYYADSVKGRFTISRDNSKNTLYLQMNSLRAEDTAVYYCAKGPDILTGYYNYYYYGMDVWGQGTMVTVSS VL: QSVLTQPPSVSGAPGQRVTISCTGSSSNIGAGYDVHWYQQLPGTAPKLLIYGNSNRPSGVPDRFSGSKSGTSASLAITGLQAEDEADYYCQSYDSSLSGFYVVFGGGTKLTVL	binds	–
